Consider 167 variants from the Human Domainome abundance scans (Beltran et al. 2025).

To fix the notation:
B1: POU domain, class 4, transcription factor 2, residues 256 to 327; numbered along this chain, Q12837 (parent)
chain: RDLEAFAERFKQRRIKLGVTQADVGSALANLKIPGVGSLSQSTICRFESLTLSHNNMIALKPILQAWLEEAE

± gives the uncertainty stated by the source.

The variants in the data set derive from B1. Put plainly: abundance fitness (aPCA) (normalised: wild type 0, dead -1); higher = more abundant; growth selection in yeast, the domain comes from the species named. The note with it: Homo sapiens.
A29L: the abundance fitness is -0.158 ± 0.045.

As to A29W, the abundance fitness is -0.799 ± 0.22.

On to A29C, for which the abundance fitness was -0.136 ± 0.093.

For the variant C45Q, the abundance fitness amounted to 0.119 ± 0.11.

Regarding C45N, the abundance fitness was determined as 0.091 ± 0.13.

Take C45V: the abundance fitness was -0.004 ± 0.084.

Regarding C45T, the abundance fitness was -0.161 ± 0.11.

As for I15P, the abundance fitness is -0.569 ± 0.087.

For I15T, the abundance fitness is 0.026 ± 0.083.

On to I15L, for which the abundance fitness was -0.101 ± 0.064.

Consider I15G, for which the abundance fitness is -0.515 ± 0.085.

For the variant I15Q, the abundance fitness was -0.066 ± 0.034.

Take A71N: the abundance fitness was -0.225 ± 0.23.

As for A71V, the abundance fitness was -0.296 ± 0.19.

For A71D, the abundance fitness is -0.614 ± 0.23.

On to A71M, for which the abundance fitness is -0.4 ± 0.17.

Regarding A71L, the abundance fitness was -0.433 ± 0.098.

As to R1E, the abundance fitness was 0.368 ± 0.47.

As for R1V, the abundance fitness was -0.107 ± 0.088.

In the case of E48W, the abundance fitness is -1.09 ± 0.24.

With E48V, the abundance fitness is -1.17 ± 0.26.

As to E48P, the abundance fitness is -0.889 ± 0.17.

As to A7G, the abundance fitness is -0.639 ± 0.065.

Consider A7P, for which the abundance fitness was -0.768 ± 0.063.

As to A7S, the abundance fitness was -0.455 ± 0.066.

On to K61M, for which the abundance fitness amounted to 0.037 ± 0.093.

For the variant K61L, the abundance fitness is -0.148 ± 0.07.

With K61S, the abundance fitness was -0.42 ± 0.087.

Take E72Y: the abundance fitness is -0.206 ± 0.48.

Turning to E72V, the abundance fitness was -0.419 ± 0.2.

Regarding Q65W, the abundance fitness is -0.504 ± 0.18.

As for Q65C, the abundance fitness was -0.132 ± 0.14.

Regarding Q65T, the abundance fitness was -0.19 ± 0.08.

Regarding Q65K, the abundance fitness is -0.074 ± 0.076.

As for S42W, the abundance fitness is -0.359 ± 0.12.

In the case of S42F, the abundance fitness is -0.494 ± 0.12.

S42C: the abundance fitness is -0.325 ± 0.089.

As to S42N, the abundance fitness is -0.28 ± 0.15.

For L60Y, the abundance fitness was -0.081 ± 0.31.

As to L60M, the abundance fitness was -0.038 ± 0.049.

Take L60A: the abundance fitness is -0.147 ± 0.11.

As to L60N, the abundance fitness was -0.682 ± 0.25.

As for L60R, the abundance fitness is -0.607 ± 0.056.

As to M57V, the abundance fitness is -0.54 ± 0.11.

As for M57H, the abundance fitness is -0.547 ± 0.16.

As to M57E, the abundance fitness is -0.565 ± 0.086.

With M57K, the abundance fitness is -0.892 ± 0.34.

For I58A, the abundance fitness was -0.139 ± 0.079.

Turning to I58K, the abundance fitness worked out at 0.063 ± 0.076.

For I58L, the abundance fitness is 0.02 ± 0.056.

Regarding I58R, the abundance fitness came out at 0.07 ± 0.045.

With I58G, the abundance fitness was -0.287 ± 0.076.

With I58M, the abundance fitness is -0.118 ± 0.12.

On to I58E, for which the abundance fitness was -0.258 ± 0.12.

For I58T, the abundance fitness is -0.235 ± 0.14.

With I58N, the abundance fitness was -0.077 ± 0.28.

Turning to I58H, the abundance fitness was -0.237 ± 0.23.

Consider I44F, for which the abundance fitness was -0.913 ± 0.41.

Regarding I44K, the abundance fitness is -0.065 ± 0.23.

Turning to I44W, the abundance fitness is -1.03 ± 0.37.

As for I44V, the abundance fitness was -0.168 ± 0.075.

With E70I, the abundance fitness is -0.156 ± 0.24.

For E70G, the abundance fitness was -0.313 ± 0.08.

For the variant E70A, the abundance fitness is -0.058 ± 0.11.

On to E70F, for which the abundance fitness was -0.543 ± 0.46.

On to E70P, for which the abundance fitness is -0.826 ± 0.16.

Regarding E70C, the abundance fitness was -0.102 ± 0.11.

With T20D, the abundance fitness was -0.254 ± 0.11.

Turning to T20G, the abundance fitness was -0.419 ± 0.071.

As to T20E, the abundance fitness is -0.325 ± 0.12.

Consider T20M, for which the abundance fitness is -0.344 ± 0.14.

With T20W, the abundance fitness is -0.731 ± 0.17.

As to T20S, the abundance fitness was -0.067 ± 0.045.

For T20H, the abundance fitness was -0.736 ± 0.17.

L39T: the abundance fitness was -0.204 ± 0.096.

For L39Q, the abundance fitness was -0.732 ± 0.17.

With L39D, the abundance fitness was -0.413 ± 0.46.

With L39R, the abundance fitness was -0.718 ± 0.1.

With P62G, the abundance fitness is -0.628 ± 0.11.

Take P62F: the abundance fitness was -0.761 ± 0.24.

As for P62T, the abundance fitness is -0.533 ± 0.1.

For the variant L50E, the abundance fitness was -0.322 ± 0.24.

With L50N, the abundance fitness stood at 0.161 ± 0.076.

Consider L50F, for which the abundance fitness is -0.088 ± 0.11.

With L50T, the abundance fitness is -0.147 ± 0.094.

Regarding G25M, the abundance fitness was -0.242 ± 0.21.

Regarding G25N, the abundance fitness is -0.593 ± 0.26.

Turning to G25R, the abundance fitness is -0.283 ± 0.046.

Regarding G25Y, the abundance fitness is -0.404 ± 0.29.

Turning to G25I, the abundance fitness is -0.145 ± 0.18.

On to G25P, for which the abundance fitness is -0.487 ± 0.1.

With G35R, the abundance fitness is -0.153 ± 0.1.

As for G35E, the abundance fitness was -0.435 ± 0.19.

Regarding G35F, the abundance fitness is -0.084 ± 0.44.

Consider G35V, for which the abundance fitness was -0.299 ± 0.092.

On to G35K, for which the abundance fitness is -0.389 ± 0.13.

For G35T, the abundance fitness was -0.365 ± 0.12.

For G35A, the abundance fitness is -0.323 ± 0.1.

As to G35S, the abundance fitness is -0.228 ± 0.082.

For T43G, the abundance fitness is -0.792 ± 0.1.

As for T43S, the abundance fitness was -0.353 ± 0.078.

On to T43A, for which the abundance fitness was -0.271 ± 0.074.

As for T43F, the abundance fitness was -0.289 ± 0.21.

In the case of T43Q, the abundance fitness was -0.452 ± 0.17.

As for T43R, the abundance fitness is -0.632 ± 0.072.

Take N30Y: the abundance fitness was -0.183 ± 0.27.

As to N30I, the abundance fitness was -0.766 ± 0.27.

Turning to N30C, the abundance fitness was -0.094 ± 0.13.

As to N30V, the abundance fitness is -0.432 ± 0.11.

For N30R, the abundance fitness is -0.189 ± 0.059.

Turning to N30E, the abundance fitness was -0.456 ± 0.16.

With N30T, the abundance fitness was -0.112 ± 0.092.

Turning to F47V, the abundance fitness is -1.06 ± 0.3.

Take F47T: the abundance fitness was -0.922 ± 0.14.

For the variant F47Q, the abundance fitness is -0.59 ± 0.18.

With L28R, the abundance fitness is -0.643 ± 0.045.

On to L28V, for which the abundance fitness is -0.143 ± 0.094.

For L28Y, the abundance fitness is -0.747 ± 0.16.

Take R46Q: the abundance fitness came to 0.122 ± 0.095.

R46C: the abundance fitness was -0.059 ± 0.082.

With R46H, the abundance fitness was -0.118 ± 0.2.

On to R46T, for which the abundance fitness was -0.531 ± 0.19.

K32V: the abundance fitness is -0.021 ± 0.097.

Take K32P: the abundance fitness was -0.33 ± 0.093.

In the case of K32Y, the abundance fitness is 0.061 ± 0.19.

On to K32L, for which the abundance fitness was -0.279 ± 0.065.

Regarding K32F, the abundance fitness was -0.372 ± 0.14.

For the variant K32H, the abundance fitness was -0.178 ± 0.17.

For the variant K32S, the abundance fitness is -0.072 ± 0.065.

For the variant K32R, the abundance fitness is -0.084 ± 0.047.

Regarding L52Q, the abundance fitness is -1.08 ± 0.32.

For the variant L52A, the abundance fitness was -0.822 ± 0.14.

On to L52E, for which the abundance fitness was -0.732 ± 0.22.

Turning to L52W, the abundance fitness was -0.952 ± 0.22.

As for L52K, the abundance fitness is -0.163 ± 0.17.

For the variant L52S, the abundance fitness is -0.849 ± 0.13.

Take L52M: the abundance fitness was -0.324 ± 0.19.

Consider S26H, for which the abundance fitness is -0.059 ± 0.094.

As for S26T, the abundance fitness is -0.08 ± 0.16.

S26M: the abundance fitness was -0.057 ± 0.11.

Turning to S26W, the abundance fitness turned out to be 0.008 ± 0.093.

As to S26L, the abundance fitness was found to be 0.061 ± 0.054.

As for S26V, the abundance fitness is -0.234 ± 0.084.

Take R14V: the abundance fitness is -0.998 ± 0.27.

As to R14K, the abundance fitness was -0.632 ± 0.42.

For the variant R14L, the abundance fitness was -0.847 ± 0.095.

Consider A5W, for which the abundance fitness is -0.491 ± 0.27.

Turning to A5E, the abundance fitness is -0.329 ± 0.35.

On to A5I, for which the abundance fitness is -0.008 ± 0.35.

For G18K, the abundance fitness is -0.47 ± 0.14.

Take G18A: the abundance fitness is -0.593 ± 0.2.

Take G18W: the abundance fitness was -0.778 ± 0.14.

G18I: the abundance fitness was -0.883 ± 0.13.

In the case of G18N, the abundance fitness is -0.82 ± 0.26.

Regarding G18M, the abundance fitness is -0.76 ± 0.21.

For the variant E4M, the abundance fitness is -0.004 ± 0.047.

Consider E4P, for which the abundance fitness was -0.335 ± 0.057.

For the variant E4Q, the abundance fitness was -0.134 ± 0.069.

In the case of E4G, the abundance fitness is -0.368 ± 0.063.

Q21Y: the abundance fitness is -0.194 ± 0.1.

Take Q21P: the abundance fitness is -0.175 ± 0.082.

Turning to Q21H, the abundance fitness stood at 0.184 ± 0.27.

In the case of Q21I, the abundance fitness came out at 0.151 ± 0.3.

Consider D23S, for which the abundance fitness is -0.068 ± 0.054.

Take D23Q: the abundance fitness came to 0.047 ± 0.074.

Take D23P: the abundance fitness was -0.755 ± 0.067.

For D23Y, the abundance fitness was -0.299 ± 0.38.
